Holding throughout (test): GST pull-down of 35S-labeled protein on glutathione-Sepharose beads
The target of assay [1] is T1, glutathione S-transferase (GST) control (UniProt P08515 1-218 = GST).
T1 construct: Control protein immobilized on glutathione-Sepharose beads
The method, then: (§1) After 36 h, extracts are prepared and immunoprecipitated with a monoclonal antibody to the Flag-epitope. The immunoprecipitates (upper panel) and the corresponding cellular lysates (lower panel) are analyzed by SDS-PAGE and immunoblotted with a HRP-conjugated T7-antibody. IP, immunoprecipitates. (C) Mutations in the BH3 domain of Blk abrogate its ability to interact with Bcl-2 and Bcl-xL. 35S-labeled wild type Blk, mutant Blk-DG59 (M1) or mutant Blk-DG59-D60 (M2) (lane 1, input) are precipitated with GST (lane 2), GST-Bcl-2 (lane 3), or GST-Bcl-xL (lane 4) and then analyzed by SDS-PAGE and Coomassie staining to detect the GST fusion proteins (lower panel) and autoradiography to detect the interacting labeled proteins (upper panel). (D) Mutations in the BH3 domain of Blk abrogate its proapoptotic activity. MCF-7 cells are transfected with the indicated plasmids and then assayed for apoptosis as in FIG. 3A.
(§2) Blk binds Bcl-2 and Bcl-xL. All the proapoptotic Bcl-2 family members can heterodimerize with Bcl-2 and Bcl-xL. To determine whether Blk can also bind to Bcl-2 or Bcl-xL, in vivo and in vitro binding studies are performed. Bcl-2 and Bcl-xL are constructed as GST fusion proteins inpGEX-4T-2 and pGEX-2T, respectively, by placing the coding sequence of Bcl-2 or Bcl-XL in frame C-terminal to the GST protein (Pharmacia). GST fusion proteins are expressed in E. coli and purified by affinity chromatography on a glutathione-coupled substrateGlutathione Sepharose 4B (Pharmacia). ³⁵S-labeled (Blk, Bik, Bax) proteins are expressed in vitro using a coupled transcription/translation system in rabbit reticulocyte lysate (TNT Kit; Promega). In vitro protein-protein interactions are carried out according to Boyd et. al. (supra). Briefly, labeled proteins are precleared by mixing with glutathione-coupled Sepharose beads, which are then removed by centrifugation. The supernatants are incubated with GST-Bcl-2, GST-Bcl-xL or GST immobilized on glutathione-coupled Sepharose beads for 2 h at 4° C. After extensive washing, proteins are recovered by boiling the beads in SDS-sample buffer and analyzed on 12% SDS-PAGE.
(§3) ³⁵S-labeled Blk, Bik or Bax are precipitated with glutathione S-transferase (GST), GST-Bcl-2 or GST-Bcl-xL fusion proteins immobilized on glutathione-Sepharose beads (FIG. 5A).

A further assay deals with T2, GST-Bcl-2 fusion protein (human, UniProt P08515 1-218 = GST; P10415 1-239).
T2 construct: Expressed in E. coli and immobilized on Glutathione Sepharose 4B beads
As to the method:
as §1, §2, §3

Assay [2] deals with T3, GST-Bcl-xL fusion protein (human, UniProt P08515 1-218 = GST; Q07817 1-233).
T3 construct: Expressed in E. coli and immobilized on Glutathione Sepharose 4B beads
As to the method: as §1, §2, §3

T1 sequence (P08515 whole entry): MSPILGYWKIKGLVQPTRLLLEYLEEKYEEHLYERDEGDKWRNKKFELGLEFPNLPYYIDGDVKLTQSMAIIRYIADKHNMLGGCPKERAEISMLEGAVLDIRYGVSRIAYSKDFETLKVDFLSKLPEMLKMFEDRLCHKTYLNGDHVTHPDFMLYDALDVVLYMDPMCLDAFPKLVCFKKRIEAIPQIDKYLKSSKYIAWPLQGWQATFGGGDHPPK
T3 sequence (P08515 1-218, tags or fused parts left off): as the sequence (P08515 whole entry) above
T2 sequence (P08515 1-218, tags or fused parts left off): as the sequence (P08515 whole entry) above

B1: murine Blk (Bik-like killer), wild type (other)
chain: MSEARLMARDVIKTVPHDQVPQPPVASETPSMKEPVRDVDLMECVEGRNQVALRLACIGDEMDLCLRSPRLVQLPGIAIHRLAVTYSRTGVRGIFRSLIRSLTNLRENIWSWRVLTPGAWVSPDQDPGQLFPMVLLVFLLLGGAWYLQLQ
modifications: 35S-labeled (in vitro translated in rabbit reticulocyte lysate) in the GST pull-down
notes: Protein of 150 amino acids; Used 35S-labeled from in vitro transcription/translation in the pull-downs, and expressed from pRSC-LacZ in the apoptosis assays; also called 35S-labeled Blk; wild type Blk
Consider B1, for which, in assay [1], the binding result is given as “no binding”.

B2: mutant Blk-DG59-D60 (Gly59 and Asp60 deleted) (other)
chain: MSEARLMARDVIKTVPHDQVPQPPVASETPSMKEPVRDVDLMECVEGRNQVALRLACIEMDLCLRSPRLVQLPGIAIHRLAVTYSRTGVRGIFRSLIRSLTNLRENIWSWRVLTPGAWVSPDQDPGQLFPMVLLVFLLLGGAWYLQLQ
modifications: 35S-labeled (in vitro translated) in the GST pull-down
notes: Cloned in pFLAG CMV-2 and the pRSC vector; also called M2
Regarding B2, the binding result (in the assay with GST-Bcl-2 fusion protein; in assay [2]) was “no binding” each time.

B3: Bik (other, human, UniProt Q13323 1-160, looked up)
chain: MSEVRPLSRDILMETLLYEQLLEPPTMEVLGMTDSEEDLDPMEDFDSLECMEGSDALALRLACIGDEMDVSLRAPRLAQLSEVAMHSLGLAFIYDQTEDIRDVLRSFMDGFTTLKENIMRFWRSPNPGSWVSCEQVLLALLLLLALLLPLLSGGLHLLLK
modifications: 35S-labeled (in vitro translated)
notes: also called human Bik/Nbk; 35S-labeled Bik
In the case of B3, in assay [1], the binding result was “no binding”.

For the origin of these results see patent US20030060416A1 (IDUN PHARMACEUTICALS, published 2003).
